Patent US20030176334A1 (Scripps Research, published 2003)
Values belong to the molecule of their own block, whether it stands above or below them. Square brackets hold non-standard residues; d marks the D form.

How the values were obtained:
[1] = molecular target: integrin αvβ3 (vitronectin receptor), purified and immobilized (UniProt P06756); experiment: solid phase receptor binding assay, iodinated MMP-2 on immobilized αvβ3
[2] = molecular target: integrin αIIbβ3, purified and immobilized (UniProt P08514); experiment: solid phase receptor binding assay, iodinated MMP-2 on immobilized αIIbβ3
[3] = molecular target: T1, integrin αIIbβ3, purified and immobilized (UniProt P08514 32-1039; P05106 27-788); experiment: competition, 125I-fibrinogen (1 nM) binding to immobilized purified αIIbβ3, gamma counting; mean of duplicates ± SD
T1 construct: Purified integrin coated at 50 ng per well; also called α11bβ3
Protocol: (§1) Briefly, selected purified integrins were separately immobilized in Titertek microtiter wells at a coating concentration of 50 nanograms (ng) per well. […] After incubation for 18 hours at 4C, nonspecific binding sites on the plate were blocked with 10 milligrams/milliliter (mg/ml) of bovine serum albumin (BSA) in Tris-buffered saline. […] Radiolabeled ligands were used at concentrations of 1 nM and binding was challenged separately with unlabeled synthetic peptides.
(§2) Following a three hour incubation, free ligand was removed by washing and bound ligand was detected by gamma counting.

[4] = molecular target: T2, integrin αvβ3 (vitronectin receptor), purified and immobilized (UniProt P06756 31-1048; P05106 27-788); experiment: competition, 125I-fibrinogen (1 nM) binding to immobilized purified αvβ3, gamma counting; mean of duplicates ± SD
T2 construct: Purified integrin coated at 50 ng per well; also called αvβ3 receptor
T2 sequence (P06756 31-1048, form in doubt, chain 1 of 2): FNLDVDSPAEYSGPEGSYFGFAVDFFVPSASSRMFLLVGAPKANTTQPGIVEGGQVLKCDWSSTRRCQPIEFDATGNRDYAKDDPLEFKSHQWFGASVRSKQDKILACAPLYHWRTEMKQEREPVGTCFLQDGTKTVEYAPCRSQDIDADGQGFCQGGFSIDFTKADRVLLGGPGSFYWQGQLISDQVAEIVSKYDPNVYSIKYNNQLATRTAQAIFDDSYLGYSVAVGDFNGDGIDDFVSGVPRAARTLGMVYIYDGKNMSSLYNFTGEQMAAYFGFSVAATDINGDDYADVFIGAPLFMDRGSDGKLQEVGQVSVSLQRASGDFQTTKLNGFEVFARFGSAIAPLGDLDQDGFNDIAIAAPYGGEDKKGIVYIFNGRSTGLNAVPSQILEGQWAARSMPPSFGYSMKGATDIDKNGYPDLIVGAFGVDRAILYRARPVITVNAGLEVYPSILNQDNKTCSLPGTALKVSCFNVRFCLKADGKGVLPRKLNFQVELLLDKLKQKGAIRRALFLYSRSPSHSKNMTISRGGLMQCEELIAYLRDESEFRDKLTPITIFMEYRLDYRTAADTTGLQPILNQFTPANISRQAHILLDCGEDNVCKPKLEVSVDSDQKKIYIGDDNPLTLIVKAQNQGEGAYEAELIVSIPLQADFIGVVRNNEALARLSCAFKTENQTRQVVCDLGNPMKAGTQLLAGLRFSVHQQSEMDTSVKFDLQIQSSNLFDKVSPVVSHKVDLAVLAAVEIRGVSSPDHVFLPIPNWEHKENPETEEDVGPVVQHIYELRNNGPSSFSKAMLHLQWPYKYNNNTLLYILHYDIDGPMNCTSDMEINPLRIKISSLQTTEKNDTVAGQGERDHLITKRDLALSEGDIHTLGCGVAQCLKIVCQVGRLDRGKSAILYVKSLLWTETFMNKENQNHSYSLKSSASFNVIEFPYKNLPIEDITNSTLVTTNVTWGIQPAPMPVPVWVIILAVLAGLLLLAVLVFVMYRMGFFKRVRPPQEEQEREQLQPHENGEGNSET
T2 sequence (P05106 27-788, form in doubt, chain 2 of 2): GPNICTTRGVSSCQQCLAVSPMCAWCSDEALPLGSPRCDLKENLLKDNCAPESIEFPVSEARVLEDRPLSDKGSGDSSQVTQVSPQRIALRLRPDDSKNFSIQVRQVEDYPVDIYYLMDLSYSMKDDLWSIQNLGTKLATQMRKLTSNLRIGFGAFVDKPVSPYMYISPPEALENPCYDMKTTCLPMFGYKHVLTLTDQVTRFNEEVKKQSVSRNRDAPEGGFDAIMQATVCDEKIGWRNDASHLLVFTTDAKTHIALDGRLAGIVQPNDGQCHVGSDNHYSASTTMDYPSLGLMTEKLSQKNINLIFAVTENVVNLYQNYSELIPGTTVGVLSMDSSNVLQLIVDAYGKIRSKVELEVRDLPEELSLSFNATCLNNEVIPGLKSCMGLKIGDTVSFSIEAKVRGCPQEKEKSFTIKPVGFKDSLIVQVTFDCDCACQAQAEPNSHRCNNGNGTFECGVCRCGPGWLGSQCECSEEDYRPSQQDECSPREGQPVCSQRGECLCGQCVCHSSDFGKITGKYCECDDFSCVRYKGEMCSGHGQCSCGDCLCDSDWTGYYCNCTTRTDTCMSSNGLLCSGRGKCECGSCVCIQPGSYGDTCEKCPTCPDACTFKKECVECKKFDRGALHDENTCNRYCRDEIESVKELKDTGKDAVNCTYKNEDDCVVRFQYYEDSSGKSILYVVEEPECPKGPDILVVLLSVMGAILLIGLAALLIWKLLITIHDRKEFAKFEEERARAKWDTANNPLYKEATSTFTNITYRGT
Protocol: as §1, §2

[5] = molecular target: T2, integrin αvβ3 (vitronectin receptor), …; experiment: competition, vitronectin (VN) binding to immobilized αvβ3; individual assay
Protocol: as §1, §2

[6] = molecular target: T1, integrin αIIbβ3, purified and …; experiment: competition, vitronectin (VN) binding to immobilized αIIbβ3; individual assay
Protocol: as §1, §2

[7] = molecular target: T1, integrin αIIbβ3, purified and …; experiment: competition, fibrinogen (FG) binding to immobilized αIIbβ3; individual assay
Protocol: as §1, §2

[8] = molecular target: T2, integrin αvβ3 (vitronectin receptor), …; experiment: competition, fibrinogen (FG) binding to immobilized αvβ3; individual assay
Protocol: as §1, §2

Chain of integrin αvβ3 (vitronectin receptor), purified and immobilized (UniProt P06756) (P06756 31-1048, form in doubt, chain 1 of 2): as the sequence (P06756 31-1048, form in doubt, chain 1 of 2) above
Chain of integrin αvβ3 (vitronectin receptor), purified and immobilized (UniProt P06756) (P05106 27-788, form in doubt, chain 2 of 2, further chain): as the sequence (P05106 27-788, form in doubt, chain 2 of 2) above

Molecule: MMP-2 (matrix metalloproteinase-2) as used in the solid phase receptor binding assays (enzyme)
bound cpm [1]: 300 cpm
bound cpm [2]: 10 CPM

B3: peptide 62179, cyclo(GRGDfL) (peptide)
peptide: cyclo(GRGD[dF]L)
modifications: also: TFA salt
notes: TFA salt
IC50 [3]: 0.055 µM
IC50 [4]: 0.395 µM

B4: peptide 62175, cyclo(ARGDfL) (peptide)
peptide: cyclo(ARGD[dF]L)
modifications: also: TFA salt
notes: TFA salt
IC50 [3]: 0.63 µM
IC50 [4]: 1.05 µM

B5: peptide 62181, cyclo(GrGDFV) (peptide)
peptide: cyclo(G[dR]GDFV)
modifications: also: TFA salt
notes: TFA salt; also called cyclo(-Gly-D-Arg-Gly-Asp-Phe-Val); c-(GrGDFV)
IC50 [3]: 15 µM
IC50 [4]: 1.96 µM

Second part, the molecule after the results:

IC50 [3]: 100 µM
IC50 [4]: 0.885 µM
B1: peptide 62185, cyclo(RADfV) (peptide)
peptide: cyclo(RAD[dF]V)
modifications: also: TFA salt
notes: also called cyclo(Arg-Ala-Asp-D-Phe-Val)

IC50 [3]: 100 µM
IC50 [4]: 57.5 µM
B2: peptide 62186, cyclo(RaDFV) (peptide)
peptide: cyclo(R[dA]DFV)
modifications: also: TFA salt
notes: TFA salt; also called cyclo(Arg-D-Ala-Asp-Phe-Val)

IC50 [5]: 0.5 µM
IC50 [6]: 0.98 µM
IC50 [7]: 4.2 µM
IC50 [8]: < 0.1 µM
B6: peptide 62880, YTAECKPQVTRGDVF (peptide)
peptide: YTAECKPQVTRGDVF
notes: Linear synthetic peptide; also called VN-derived amino acid residues 35-49

IC50 [5]: > 100 µM
IC50 [6]: 5 µM
IC50 [7]: 90 µM
IC50 [8]: > 100 µM
B7: peptide 62502, TDVNGDGRHDL (peptide)
peptide: TDVNGDGRHDL
notes: Linear synthetic peptide; also called αIIb-derived amino acid residues 296-306

IC50 [5]: > 100 µM
IC50 [6]: > 100 µM
IC50 [8]: > 100 µM
B8: peptide 62411, TRQVVCDLGNPM (peptide)
peptide: TRQVVCDLGNPM
notes: Linear synthetic peptide; also called αv-derived amino acid residues 676-687

IC50 [5]: > 100 µM
IC50 [6]: > 100 µM
IC50 [8]: > 100 µM
B9: peptide 62503, GVVRNNEALARLS (peptide)
peptide: GVVRNNEALARLS
notes: Linear synthetic peptide; also called αv-derived amino acid residues 655-667
